# Results reported in the DeepSol protein solubility set.
# Assay: soluble on expression in E. coli; label from the status in PepcDB or PDB records
row,Sequence,soluble on expression in E. coli
1,GPGSMQSNAPFDPEREALRNEAIKKTVERNVTQARLKKVNDDVKLQQRELDKVEDQVNALLSIGHYVGEVLKRVDEERFIVKSISGARHLVGYRKSIKPEKLKFGARVALEITTFTIVKVLPREVDPQVYSMQYMSSDKDVSFQDIGGLQPQMRQMREVIELPLTNPELFVRVGIAPPKGVLLYGPPGTGKTLLAKAIAANVDAAFLKIVASSIVDKYIGESARVIREMFAYAREHEPCIIFIDEVDAIGSKRIEGSSSDREIQRTLMELLNQMDGFDKLGKVKVIMATNRPDTLDAALMRPGRLDRKIEIPLPNEAGRLDVLRIHSAKITKKGDIDFESVVKLSEGFNGADLRNVCTEAGMFAIRAGRDYVENSDFNKAVRKVADMKRLEGTAHQYSDQ,not soluble
2,MNYKVTAEAIPDYQSKNAPISSYWMPDKFLEWSAENDKDLVYNQSRVPLTKRISPDKLSPSNQNQNKKTKIVALSMMNSQTSGNPSRGTTKFESYTFDYWQYIDTLVYWGGSSGEGIIVTPSADVIDEAHSNGVPVLGTIFLPPKEYGGKVDWVKTMLKKDEQGQYPFASQMVKVAKTYGFEGWFINEETQGLNADDAANMKALIQQVKKEDSSLQIMWYDAMTKDGKVDWQNQLNDQNATFVQDKAADAMFLNFWWTQNNLADQKLLEKSNLYAKNHNIDPYNIYAGIDVQAKDVQTPVKWNLLEKGNQATQTSIGLYAASATYTNASNWDDFQNRESAFWVNQKADPRQVDHSVNESWTGLSKYVLEKSAISGNEFNTNFNLGNGYNYFKAGQKISEMDWNDRSLAGILPSYRWIIDNEGKNKISPSFDFANAYNGGNSLKFMAEHLDAGKLEHHHHHH,not soluble
3,NLNKVKFTEEHAIEVTNWKYEGKYSIYNLPPWEEIKKKNFSLAKEDKRKNFISFINDNKELIGFINLLDEGSSVFFGIGMKPNYCGMGIGKEIISLRLQECRNKYSTKPIVLNVRTWNMRAVKCYESQGFKIVETKVQKTH,not soluble
4,MGSDKIHHHHHHVSDSPLPDSETSAAAEFKVDNCALVLEGGGLRAIYTAGVLDAFLAAGIHFQYLVGVSAGAIYPASYLSRQMGRNLTIQQNFLADKRYMGLKHLLRTGNYVNTDFTYRRMAHELVPYDFDAFASSEAEFKVGAFNCLTGETDFFGMADFADHDTFLEVLIASSSLPFISKPTFIDGTPYLDGGIGAPIPLAQAREDGYKRQVVILTQEQDYRKSAFKAKWLAKRLYRRYPKVASALLARHQVYNQALDDLTKAQADGSALVLQPATPMGLSRLERDVSKVEAVYRRGLSEGEAFIPSLLAFIENC,not soluble
5,MDERDALRISREIAGEVRKAIASMPLRERVKDVGMGKDGTPTKAADRVAEDAALEILRKERVTVVTEESGVLGEGDVFVALDPLDGTFNATRGIPVYSVSLCFSYSDKLKDAFFGYVYNLATGDEYYADSSGAYRNGERIEVSDAEELYCNAIIYYPDRKFPFKRMRIFGSAATELCFFADGSFDCFLDIRPGKMLRIYDAAAGVFIAEKAGGKVTELDGESLGNKKFDMQERLNIVAANEKLHPKLLELIK,soluble
6,MAGDPMVMRLSKIYGKQIYTTKGKYVGYVDEVIIDIDEGRGEVVLLALPGERVGVPYERVTAVGDIILVEATTEKKRISQEGLEHHHHHH,not soluble
7,MGSLKIYPSKLSGDVKIPPSKSMAHRAVICSSLSNGKSRISNIDFSDDIIATIRAMTSLGAIIEKKEDILEISGIFSKEGILNRENQLNQPKLTIDCNESGSTLRFLVPISLAFDGVKRFIGRGNLGKRPLDTYYEIFDRQNIKYSYKENQLDLIISGKLKPDEFRVKGNISSQFITGLLFILPTLESDSKIIITTELESKGYLDLTLSTIKDFGVEIINNNYKEFIIKGNQTYKARDYKVEGDYSQGAFYLSADAIGEDISILDLKEDSLQGDSEVVEILSRMGMEILREGNKIKGITNGLNGTLIDASQCPDIIPVLSVVASLSIGKTTIINAGRLRIKECDRLHAINVELSKLGANIEEKEDSLIIEGVSKLNGGVEVWSHKDHRIAMTLAIASCRCDKPIILKDFECVSKSYPHFFKDFKMLGGRIDEWNMGK,not soluble
8,MGKVTGFLEIERHDRVYAPVTDRVKNYNEFVVPLSEKDLRDQAARCMNCGIPYCHGTGSAQPGATGCPVNNQIPDWNDLVYNGYWQEAARTLHSTNNFPEFTGRICPAPCEASCTLNIDDNPVTIKTIECAIVDTAFDNGWVTPEIAAVKTGQSVAVVGAGPAGLACAQQLARAGHDVHVYEKFAKAGGLLRYGIPDFKMEKTLIDRRVAQMEAEGVTFHYGAPVGGSAPGAVDPAELLKQYDAVALTGGAEAPRDLPIPGRELGGIHFAMDFLTQQNRRVSGEAVNGTDILAAGKNVVVIGGGDTGSDCIGTSIRQGAKSVTQIEIMPAPPERENKALTWPNWPMKMRTSSSQAEGAAREFAVMTQSFEGEGGVVKKLNCVRVDAKFQPIPGTEFTLEADLVLLAMGFVSPVKEGLLTQLGVALDPRGNVAADLSHFTTSVDKVFAAGDMRRGQSLVVWAIREGRLCAQAIDRFLMGATTLPRLEHHHHHH,not soluble
9,MAAPSMKERQACWGARDLYWRCLDDNAEDAARCQKLRSSFEASCPQQWIKYFDKRRDYLKFKEKFEAGGFQSSQSTENS,soluble
10,MAHHHHHHMVIFFGRAQTRRVTGKVVVFGATTNVGKHLSLLLTLSPQVKELCCFDPLNDVTLRMTETRVRGIVKDLSHIDTGVVLRAVDDPQQWEPAMRNAQLVLICTGSIPNPSRLQRDLALAECAPEYLVAMELVARAAPHAIVGIASGPVNSLVPLAREVLLRHSAFDPRKLFGITSRDVMRTRVLFAKELHMNPYDVNVHVVGGKGDATVCPLITQTGFQLPHQRMVQLCEEVQRPENFTAGDHNSTGCRVDSQNVQGQEKFTCPTLSTANAAYEWVTSIMKAQRGDRGITECSFVESSIKRETPFFSSRVELGEEGAAQLLPLGALTPYEEELVAAAVPLIVEDVEAGLRLSKTGVDAVS,not soluble
11,MGSDKIHHHHHHMTNRYDAVIIGAGHNGLVCGAYLARKGFKVCLLERRELAGGAAVSEAVWPGYRVSTASYTMALLQPRIIDELELAKYGYEIVVPPPMLHLYGDGRSLLFRPEGERLSADIARFSEADADAYGKYRAHMARLGKMVAGMLWETPPDPADSTLSARSRLLGFAWRFRDMGEQFYDLYDVLTLSARDYLARWFESDEMIAALGFYASCGGAATSICSPGSAYVLLRGFIRDHTTSAGPAGFVRGGMGSISEAIAASGKAYGMEVRCNAPVASVEISGERATGVRLSSGELIEAGCVISNVATKVLFQQLVGAQNVPPEFLARVRQIRDRSTAFKVNLALRRLPTFKDFDARSAGFAYPAQVRLAPSVEYLERAWDAAKYGEISPRPPLVVLTPSAVDPGVAPKGKHLMSIFGQHAPYALRDGPWDDAQRERLYQITLDTLAAYAPDIRECIDDAQVLSPADLERIFALPGGHVHHGELSADQIFFRRPVQGAADYCTPVKGLYQCGASVHPGGGVTGVPGYNAAHVVVRRERH,not soluble
12,GPGSMFRKAESAHAAINATHLTQPTPNCGTVLHVSIAMHDEGLDDHPNDRLFIRGLPQWATKEHLRQMFAPYGVITECAVLMNPLGQCKGSGFVQFSSQQEATAAIKARDSISMDNWPNQLEVKYSESAEVRQMRQERNRNRQRHWLPSPQYRGGNTPSSLPSPYPGFSPPLSLIPSPQAFPVMNAMPFSMVYSPTPATTGAP,soluble
13,MGSSHHHHHHSSGRENLYFQGHMMSGHNKWANIKHRKMAQDAKKSKIFTKLIREIIVAAREGGGNIETNPRLRAAVERARAENMPKENIERAIKRGTGELEGVDYQEVIYEGYAPGGVAVYIRALTDNKNRTAQELRHLFNKYGGSLAESGSVSWIFERKGVIEISRDKVKDLEELMMIAIDAGAEDIKDAEDPIQIITAPENLSEVKSKLEEAGYEVEAKVTFIPKNTVKVTGKDAEKVLEFLNALEDMDDVQEVYSNFEMDDKEMEEILSRLEG,soluble
14,MFTKSGDDGNTNVINKRVGKDSPLVNFLGDLDELNSFIGFAISKIPWEDMKKDLERVQVELFEIGEDLSTQSSKKKIDEKYVKWLEERTVEYRKESGPVKLFVIPGGSEEASVLHVTRSVARRVERNAVKYTKELPEINRMIIVYLNRLSSLLFAMALVANKRRNVSEKIYDIGKFW,soluble
15,AIAATPTEHEDLSEQEVTEDEFKTPKIRETPEDIKLEAIVNTIAFHPKQDILAAGDIDGDIYLFSYSCTEGENKELWSSGHHLKSCRKVLFSSDGQKLFSVSKDKAIHIMDVEAGKLETRIPKAHKVPINAMLLIDENIFATGDDEGTLKVWDMRKGTSFMDLKHHEDYISDITIDQAKRTLLTSSGDGTLGVFNIKRRRFELLSEIQNGDLTSVSIMKRGRKVVCGSGEGTIYIFNWNGFGATSDRFAVQAESVDCIVPITDSILCAASTDGVIRAINILPNRVVGSIGQHVGEAIEEIARCRDTHFLASCAHDELIKFWDISSLPDEKVNDYRRRKKKDRRLKALSNKAFDTGQNFFAGLLDTTEENGKEGENDEDDDDEDSDSGSD,soluble
16,MKTIVVLGAGYAGLKTVVALQKKLRKEVRIILIDRNPYHYETMRLYEVASGSAPYTRMSYELADVLDKNMNELVVDQVEKIDLKNKTVELTKHKPISYDYCVVGLGFVLSSMGIAGAQENALPMSNVKQAQAIRDHIESEMRAYVKDHDSQHLSIVICGAGFQAIELAGALAQARPCFAQTAGTDPEKITIKMIDGSPRLLPMFQGKLLDYAINLSALEHHHHHH,not soluble
17,MHHHHHHSSGLVPRGSGMKETAAAKFERQHMDSPDLGTDDDDKAMADIGSEFDMANIAVQRIKREFKEVLKSEETSKNQIKVDLVDENFTELRGEIAGPPDTPYEGGRYQLEIKIPETYPFNPPKVRFITKIWHPNISSVTGAICLDILKDQWAAAMTLRTVLLSLQALLAAAEPDDPQDAVVANQYKQNPEMFKQTARLWAHVYAGAPVSSPEYTKKIENLCAAGFDRNAVIVALSSKSWDVETATELLLSN,soluble
18,MSAVSNGNPSIVSPRGEHKGTLIFLHGLGDQGHGWADAFKTEAKHDNIKFICPHSSERPVTLNMGMRMPAWFDLFGLDPNAQEDEQGINRATQYVHQLIDAEVAAGIPASRIAVGGFSMGGALAIYAGLTYPQKLGGIVGLSSFFLQRTKFPGSFTANNATPIFLGHGTDDFLVPLQFGQMSEQYIKKFNPKVELHTYRGMQHSSCGEEMRDVKTFLSAHIAH,not soluble
19,MDNARIDLRSKYYVKPKADHPWLTRRTQSHQQVKPPKLPKKKPDPDKKD,not soluble
20,TLKGKTALVTGSTSGIGLGIAQVLARAGANIVLNGFGDPAPALAEIARHGVKAVHHPADLSDVAQIEALFALAEREFGGVDILVNNAGIQHVAPVEQFPLESWDKIIALNLSAVFHGTRLALPGMRARNWGRIINIASVHGLVGSTGKAAYVAAKHGVVGLTKVVGLETATSNVTCNAICPGWVLTPLVQKQIDDRAANGGDPLQAQHDLLAEKQPSLAFVTPEHLGELVLFLCSEAGSQVRGAAWNVDGGWLAQ,soluble
21,LLNQGGEKLLDYYFTKTNYMERENARRYNDLRDYVKKNKLSTEDTDRLAEWVRRQEVVWMQMYRDHILLYDSQFPYMKANPEYHVTGQFYEWNGYEMIDFQDGEALVFLTGMYTYQFFNY,not soluble
22,MPEISPYVTKTEVQLMMAGLDYRKTNGSRDTAPKGQLPWIVDAAQAIADSTFIRVHIERKYDVDLDFGLTGRERAQAWAIERMIENQLGWVSTYFRFLEPANFERGPARAFDQAPGHLRDELRQGLREAVAANIRAVGVGRHLREEVAWLGGLSLRALDELLEDKAYLMRDAYPVGVDATAFAMLAAIMTPFFDSPLRRQAERYPRLVAYVGRMMERFYPAHPWGLRQAALEHHHHHH,not soluble
23,GPGSMPYIRMAYEKAISDVPADTLDKVKAVLSALEEVLSVRTFLVGERLTIADVAVAFSIHWVYRCNRKHGQTLYKEYRAVYRHYNTVMRHPKIHAMMRKEGAAIGPLRS,not soluble
